From US20230192902A1 (published 2023) come the findings set out here.

Assay [1] addresses T1, human ABCG2 (UniProt Q9UNQ0 1-655).
T1 chain: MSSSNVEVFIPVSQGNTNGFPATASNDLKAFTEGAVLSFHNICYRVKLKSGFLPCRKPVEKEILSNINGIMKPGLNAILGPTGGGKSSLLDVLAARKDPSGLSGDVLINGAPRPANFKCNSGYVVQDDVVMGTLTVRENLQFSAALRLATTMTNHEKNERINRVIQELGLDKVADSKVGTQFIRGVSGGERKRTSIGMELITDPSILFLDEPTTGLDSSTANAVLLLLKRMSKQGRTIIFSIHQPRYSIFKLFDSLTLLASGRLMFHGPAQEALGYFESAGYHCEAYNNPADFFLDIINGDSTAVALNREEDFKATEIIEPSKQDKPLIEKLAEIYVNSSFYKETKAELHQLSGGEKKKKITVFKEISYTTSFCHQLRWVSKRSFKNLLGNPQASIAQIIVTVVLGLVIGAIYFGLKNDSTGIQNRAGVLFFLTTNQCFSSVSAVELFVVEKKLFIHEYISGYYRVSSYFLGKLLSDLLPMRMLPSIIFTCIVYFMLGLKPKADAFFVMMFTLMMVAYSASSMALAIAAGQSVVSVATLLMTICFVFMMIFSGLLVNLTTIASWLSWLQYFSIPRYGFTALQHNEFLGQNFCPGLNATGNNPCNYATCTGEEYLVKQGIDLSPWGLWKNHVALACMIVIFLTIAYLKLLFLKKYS
In words: flow cytometry cell binding; 293T-G2OX cells.

Another assay concerns the target human PD-L1 (human, UniProt Q9NZQ7 19-290). In words: flow cytometry cell binding; 293T-KT9OX cells. (In general: In flow cytometry, cells or beads pass a laser one at a time.)
For the next assay, the target named is 293T-G2KT9OX. The assay can be described thus: flow cytometry cell binding; cells expressing both ABCG2 and PD-L1.
The target in assay [2] is T1, human ABCG2. In words: flow cytometry cell binding; 293T-G2OX cells.

Changes are numbered by the printed parent chain. Like-named read-outs stand apart in the source and are kept apart here.

Chain of human PD-L1 (Q9NZQ7 19-290): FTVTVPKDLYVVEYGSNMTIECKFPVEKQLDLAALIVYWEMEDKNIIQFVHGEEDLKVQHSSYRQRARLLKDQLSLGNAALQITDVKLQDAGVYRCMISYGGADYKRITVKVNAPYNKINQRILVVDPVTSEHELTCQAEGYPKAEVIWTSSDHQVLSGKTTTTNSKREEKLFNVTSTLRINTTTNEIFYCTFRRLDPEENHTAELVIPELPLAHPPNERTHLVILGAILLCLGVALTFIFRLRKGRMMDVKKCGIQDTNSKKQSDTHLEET

B1: 5D3hVH-v1DD KT9KK 5D3hVL-v1 (bispecific antibody, V domains shown)
VH 1: EVQLQESGPGLVKPSETLSLTCTVSGFSITSDYAWNWIRQPPGKGLEWMGYINFDGGTTYNPSLRGRITISRDTSKNQFSLKLSSVTAADTAVYYCATFYGAKGTLDYWGQGTLVTVSS
VH 2: not shown
VL: DIQLTQSPSSLSASVGDRVTITCKASGYILNRLAWYQQKPGKAPKLLISGATSLETGFPSRFSGSGSGKDYTLTISSLQPEDFATYYCQQYWSTPWTFGGGTKLEIK
As to B1, the EC50 with human ABCG2 [1] was 7.1 nM; with human PD-L1, 4.18 nM.

B2: 5D3hVHv1DD KT9KK 5D3hVKv1 (bispecific antibody, V domains shown)
VH 1: B1 VH 1
VH 2: not shown
VL: B1 VL
B2: the EC50 with 293T-G2KT9OX worked out at 10.8 nM.

B3: 5D3hVHv1 5D3hVKv1 (antibody, V domains shown)
VH: B1 VH 1
VL: B1 VL
As for B3, the 50% effective concentration (EC50) with human ABCG2 [2] was found to be 2.2 nM.

B4: 5D3hVHv2 5D3hVKv1 (antibody, V domains shown)
VH: B1 VH 1 with M49I, I68V
VL: B1 VL
In the assay with human ABCG2 [2], B4 registered an EC50 of 2.2 nM.

B5: anti-ABCG2 antibody 5D3 (antibody, V domains shown)
VH: QVQLQESGPGLVKPSQSLSLTCTVTGFSITSDYAWNWIRQFPGKKLEWMGYINFDGGTTYNPSLRGRISITRDTSKNQFFLQLRSVTPEDTATYYCATFYGAKGTLDYWGQGTSVTVSS
VL: DIVLTQSPSSFSVSLGDRVTISCKASGYILNRLAWYQQKPGNAPRLLISGATSLETGFPSRFSGTGSGKDYTLSISSLQTEDVGTYYCQQYWSTPWTFGGGTKLEIR
In the assay with human ABCG2 [2], B5 registered an EC50 of 1.5 nM.

The EC50 is the concentration giving half of the maximal effect.
